Laboratory results as given in patent US20220025056A1 (INNATE PHARMA, published 2022).
Where two headings read alike, the source gives them in different places.

Tests used:
[1] = molecular target: T1, human ILT2 on primary NK cells (human, UniProt Q8NHL6 24-650); assay: cell-based or functional assay
[2] = molecular target: T2, human ILT1 (LILRA2) on CHO cells (human, UniProt Q8N149 24-475); assay: flow cytometry, CHO transfectants
T2 construct: also called CHO ILT1 cell line

[3] = molecular target: T3, human ILT3 (LILRB4) on CHO cells (human, UniProt Q8NHJ6 24-443); assay: flow cytometry, CHO transfectants
T3 construct: also called CHO ILT3 cell line
T3 sequence (Q8NHJ6 other isoform, or with tags, fused parts or gaps): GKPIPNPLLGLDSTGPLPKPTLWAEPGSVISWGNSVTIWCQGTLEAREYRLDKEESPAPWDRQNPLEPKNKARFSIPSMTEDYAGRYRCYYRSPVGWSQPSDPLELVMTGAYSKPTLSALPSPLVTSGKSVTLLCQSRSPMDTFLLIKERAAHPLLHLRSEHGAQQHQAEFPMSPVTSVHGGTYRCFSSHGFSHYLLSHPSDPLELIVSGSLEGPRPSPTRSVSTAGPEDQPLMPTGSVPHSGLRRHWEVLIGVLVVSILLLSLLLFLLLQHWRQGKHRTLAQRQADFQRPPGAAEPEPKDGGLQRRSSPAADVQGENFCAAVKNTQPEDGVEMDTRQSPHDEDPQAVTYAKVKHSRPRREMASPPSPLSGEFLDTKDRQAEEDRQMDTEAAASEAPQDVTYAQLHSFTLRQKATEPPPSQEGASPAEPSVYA

[4] = molecular target: T4, human ILT4 (LILRB2) on CHO cells (human, UniProt Q8N423 23-597); assay: flow cytometry, CHO transfectants
T4 construct: also called CHO ILT4 cell line

[5] = molecular target: T5, human ILT5 (LILRB3) on CHO cells (human, UniProt O75022 24-626); assay: flow cytometry, CHO transfectants
T5 construct: also called CHO ILT5 cell line
T5 sequence (O75022 other isoform, or with tags, fused parts or gaps): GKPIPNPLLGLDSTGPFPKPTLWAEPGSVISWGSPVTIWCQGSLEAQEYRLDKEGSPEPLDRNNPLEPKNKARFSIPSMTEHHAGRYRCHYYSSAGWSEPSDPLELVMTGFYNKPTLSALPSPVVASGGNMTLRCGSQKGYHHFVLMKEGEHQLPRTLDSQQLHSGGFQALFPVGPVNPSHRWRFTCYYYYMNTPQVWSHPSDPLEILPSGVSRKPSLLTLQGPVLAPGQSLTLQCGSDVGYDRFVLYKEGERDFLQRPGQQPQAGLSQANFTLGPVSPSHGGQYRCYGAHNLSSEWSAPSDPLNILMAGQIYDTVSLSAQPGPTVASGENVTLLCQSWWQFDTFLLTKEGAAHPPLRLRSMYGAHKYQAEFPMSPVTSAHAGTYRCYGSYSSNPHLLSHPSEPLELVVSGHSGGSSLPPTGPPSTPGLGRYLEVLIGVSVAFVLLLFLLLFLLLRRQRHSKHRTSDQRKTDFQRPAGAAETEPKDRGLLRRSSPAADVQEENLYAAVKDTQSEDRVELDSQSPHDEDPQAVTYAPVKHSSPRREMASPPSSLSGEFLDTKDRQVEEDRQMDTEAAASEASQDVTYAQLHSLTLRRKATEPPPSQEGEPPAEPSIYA

[6] = molecular target: T6, human ILT6 (LILRA3) on CHO cells (human, UniProt Q8N6C8 24-434); assay: flow cytometry, CHO transfectants
T6 construct: also called CHO ILT6 cell line; human ILT-6 polypeptide
T6 sequence (Q8N6C8 other isoform, or with tags, fused parts or gaps): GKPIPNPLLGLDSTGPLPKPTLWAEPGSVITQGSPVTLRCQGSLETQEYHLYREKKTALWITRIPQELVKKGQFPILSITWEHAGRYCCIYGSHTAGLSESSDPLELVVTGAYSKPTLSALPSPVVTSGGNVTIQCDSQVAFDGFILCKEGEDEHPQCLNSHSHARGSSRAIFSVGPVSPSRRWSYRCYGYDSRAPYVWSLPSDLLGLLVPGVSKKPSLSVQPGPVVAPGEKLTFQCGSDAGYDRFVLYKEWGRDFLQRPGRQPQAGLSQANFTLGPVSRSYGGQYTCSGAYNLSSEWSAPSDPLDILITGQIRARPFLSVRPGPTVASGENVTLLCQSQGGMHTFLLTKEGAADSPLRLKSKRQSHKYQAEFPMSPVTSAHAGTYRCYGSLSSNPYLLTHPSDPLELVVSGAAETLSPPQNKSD

[7] = molecular target: T7, human ILT7 (LILRA4) on CHO cells (human, UniProt P59901 28-494); assay: flow cytometry, CHO transfectants
T7 construct: also called CHO ILT7 cell line

[8] = molecular target: T8, human ILT8 (LILRA6) on CHO cells (human, UniProt Q6PI73 24-477); assay: flow cytometry, CHO transfectants
T8 construct: also called CHO ILT8 cell line
T8 sequence (Q6PI73 other isoform, or with tags, fused parts or gaps): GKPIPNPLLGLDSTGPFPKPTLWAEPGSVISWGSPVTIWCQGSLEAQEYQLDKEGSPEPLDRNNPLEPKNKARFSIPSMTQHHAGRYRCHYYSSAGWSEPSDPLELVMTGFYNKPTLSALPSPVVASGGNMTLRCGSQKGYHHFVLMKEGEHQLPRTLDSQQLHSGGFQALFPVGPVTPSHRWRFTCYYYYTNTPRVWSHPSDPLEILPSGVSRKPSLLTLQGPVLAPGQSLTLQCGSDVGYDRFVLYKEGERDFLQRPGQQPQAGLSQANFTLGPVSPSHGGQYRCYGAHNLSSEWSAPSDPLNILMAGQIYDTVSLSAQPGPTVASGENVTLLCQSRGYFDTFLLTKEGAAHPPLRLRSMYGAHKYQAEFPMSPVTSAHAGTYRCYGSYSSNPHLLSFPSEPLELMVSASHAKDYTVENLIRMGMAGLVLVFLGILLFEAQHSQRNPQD

[9] = molecular target: T9, human ILT2 (LILRB1) expressed at the surface of transfected cells (human, UniProt Q8NHL6 24-650); assay: flow cytometry, CHO-ILT2 cells
T9 construct: also called CHO-ILT2; CHO ILT2 cell line
T9 sequence (Q8NHL6 24-650): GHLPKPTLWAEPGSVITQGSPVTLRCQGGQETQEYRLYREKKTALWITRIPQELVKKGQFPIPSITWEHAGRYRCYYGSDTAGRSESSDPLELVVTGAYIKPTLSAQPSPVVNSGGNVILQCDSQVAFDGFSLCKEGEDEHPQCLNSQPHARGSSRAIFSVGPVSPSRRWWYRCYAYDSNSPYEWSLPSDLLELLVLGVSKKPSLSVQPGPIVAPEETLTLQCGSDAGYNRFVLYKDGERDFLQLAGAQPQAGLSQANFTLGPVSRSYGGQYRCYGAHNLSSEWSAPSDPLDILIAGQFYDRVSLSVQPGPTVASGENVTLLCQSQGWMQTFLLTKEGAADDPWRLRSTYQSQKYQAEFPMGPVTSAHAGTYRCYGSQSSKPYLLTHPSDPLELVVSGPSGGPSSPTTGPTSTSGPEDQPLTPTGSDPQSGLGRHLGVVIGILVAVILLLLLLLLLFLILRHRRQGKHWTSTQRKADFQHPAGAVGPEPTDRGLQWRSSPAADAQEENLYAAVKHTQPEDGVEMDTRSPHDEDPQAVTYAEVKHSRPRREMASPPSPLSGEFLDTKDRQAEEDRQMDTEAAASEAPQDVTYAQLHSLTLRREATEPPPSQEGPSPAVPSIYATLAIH
Method: Cells were incubated with various concentrations of unlabeled anti-ILT2 antibodies from 30 μg/ml to 5×10-⁴ μg/ml, for 30 minutes at 4° C. After washes with staining buffer, cells were incubated for 30 min at 4° C. with Goat anti-human H+L AF488 secondary antibody (Jackson Immunoresearch #109-546-088) or Goat anti-mouse H+L AF488 secondary antibody for commercially available antibodies (Jackson Immuoresearch #115-545-146). Fluorescence was measured on an Accury C6 flow cytometer equipped with an HTFC plate loader.

[10] = molecular target: T1, human ILT2 on primary NK cells; assay: flow cytometry, primary NK cells
[11] = molecular target: T10, anchored ILT2 D2 domain protein (human); assay: flow cytometry, CHO cells with anchored ILT2 domain proteins
T10 construct: on CHO cells; the entry includes leader remnant, V5 tag and CD24 GPI anchor signal
T10 sequence (chain, as listed by the source limits assumed): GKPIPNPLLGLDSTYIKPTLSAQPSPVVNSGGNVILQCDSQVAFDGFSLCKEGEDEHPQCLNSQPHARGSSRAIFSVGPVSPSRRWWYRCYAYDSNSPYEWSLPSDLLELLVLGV

[12] = molecular target: T11, anchored ILT2 D1-D2 domain protein (human, UniProt Q8NHL6 24-222); assay: as above
T11 construct: on CHO cells; the entry includes leader remnant, V5 tag and CD24 GPI anchor signal

[13] = molecular target: T12, anchored ILT2 D2-D3 domain protein (human, UniProt Q8NHL6 122-321); assay: as above
T12 construct: on CHO cells; the entry includes leader remnant, V5 tag and CD24 GPI anchor signal
T12 sequence (Q8NHL6 other isoform, or with tags, fused parts or gaps limits assumed): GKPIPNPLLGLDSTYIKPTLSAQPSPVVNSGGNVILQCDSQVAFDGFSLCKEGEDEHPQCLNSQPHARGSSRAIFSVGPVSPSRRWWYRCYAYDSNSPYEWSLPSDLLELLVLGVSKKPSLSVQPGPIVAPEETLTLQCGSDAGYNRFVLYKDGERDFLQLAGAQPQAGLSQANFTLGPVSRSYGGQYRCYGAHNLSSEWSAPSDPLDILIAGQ

[14] = molecular target: T13, anchored ILT2 D1-D2-D3 domain protein (human, UniProt Q8NHL6 24-321); assay: as above
T13 construct: on CHO cells; the entry includes leader remnant, V5 tag and CD24 GPI anchor signal

[15] = molecular target: T14, ILT-2_6xHis recombinant protein (human, UniProt Q8NHL6 24-458); assay: SPR, antibody captured on Protein-A, soluble ILT2 analyte
T14 construct: monomers purified by SEC; also called recombinant 6xHIS tagged ILT2; recombinant human ILT2 proteins
T14 sequence (Q8NHL6 other isoform, or with tags, fused parts or gaps limits assumed): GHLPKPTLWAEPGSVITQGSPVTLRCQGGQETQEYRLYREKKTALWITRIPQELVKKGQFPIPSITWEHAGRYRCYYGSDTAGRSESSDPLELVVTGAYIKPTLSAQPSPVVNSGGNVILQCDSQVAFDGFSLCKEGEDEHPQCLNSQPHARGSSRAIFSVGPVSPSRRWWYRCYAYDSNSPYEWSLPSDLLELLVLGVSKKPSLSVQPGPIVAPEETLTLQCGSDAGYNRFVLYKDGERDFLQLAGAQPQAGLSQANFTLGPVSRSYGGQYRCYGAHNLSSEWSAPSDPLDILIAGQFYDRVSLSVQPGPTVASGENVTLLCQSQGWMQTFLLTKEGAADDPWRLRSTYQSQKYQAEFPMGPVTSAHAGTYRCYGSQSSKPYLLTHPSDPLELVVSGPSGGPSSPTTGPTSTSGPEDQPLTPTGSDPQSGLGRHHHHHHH
Method: Measurements were performed on a Biacore T200 apparatus (Biacore GE Healthcare) at 25° C. In all Biacore experiments HBS-EP+(Biacore GE Healthcare) and NaOH 10 mM served as running buffer and regeneration buffer respectively. Sensorgrams were analyzed with Biacore T100 Evaluation software. Protein-A was purchased from (GE Healthcare). Human ILT2 recombinant proteins were cloned, produced and purified at Innate Pharma. Protein-A proteins were immobilized covalently to carboxyl groups in the dextran layer on a Sensor Chip CM5. The chip surface was activated with EDC/NHS (N-ethyl-N′-(3-dimethylaminopropyl) carbodiimidehydrochloride and N-hydroxysuccinimide (Biacore GE Healthcare)). Protein-A was diluted to 10 μg/ml in coupling buffer (10 mM acetate, pH 5.6) and injected until the appropriate immobilization level was reached (i.e. 600 RU). Deactivation of the remaining activated groups was performed using 100 mM ethanolamine pH 8 (Biacore GE Healthcare). […] For blank subtraction, cycles were performed again replacing ILT2 proteins with running buffer. The monovalent affinity analysis was conducted following a regular Capture-Kinetic protocol as recommended by the manufacturer (Biacore GE Healthcare kinetic wizard). Seven serial dilutions of human ILT2 proteins, ranging from 1.95 nM to 250 nM were sequentially injected over the captured antibodies and allowed to dissociate for 10 min before regeneration. The entire sensorgram sets were fitted using the 1:1 kinetic binding model or two state reaction model, as a function of the profile of the curves.

[16] = molecular target: T9, human ILT2 (LILRB1) expressed at the …; assay: flow cytometry titration on HEK293T cells transfected with wild-type ILT2
ILT2 mutant 4-1 = molecular target: T15, ILT2 mutant 4-1 (human, UniProt Q8NHL6 24-650); assay: flow cytometry titration on HEK293T cells transfected with ILT2 mutant 4-1
T15 construct: transfected in HEK293T cells

ILT2 mutant 4-2 = molecular target: T16, ILT2 mutant 4-2 (human, UniProt Q8NHL6 24-650); assay: flow cytometry titration on HEK293T cells transfected with ILT2 mutant 4-2
T16 construct: transfected in HEK293T cells

Mutant D4-4 = molecular target: T17, Mutant D4-4; assay: flow cytometry titration on HEK293T cells transfected with ILT2 mutant 4-4
T17 construct: also called ILT2 mutant 4-4; mutant 4-4

ILT2 mutant 4-5 = molecular target: T18, ILT2 mutant 4-5 (human, UniProt Q8NHL6 24-650); assay: flow cytometry titration on HEK293T cells transfected with ILT2 mutant 4-5
T18 construct: transfected in HEK293T cells

Mutant D4-1B = molecular target: T19, Mutant D4-1B; assay: flow cytometry titration on HEK293T cells transfected with ILT2 mutant 4-1b
T19 construct: read as S304F; also called ILT2 mutant 4-1b; mutant 4-1b

[17] = molecular target: T20, anchored ILT2 D1 domain protein (human); assay: flow cytometry on CHO cells expressing the anchored ILT2 D1 domain protein (SEQ ID NO: 46); stacked histograms, axis without numbers
T20 construct: on CHO cells; the entry includes leader remnant, V5 tag and CD24 GPI anchor signal

[18] = molecular target: T21, anchored ILT2 D3 domain protein (human); assay: flow cytometry on CHO cells expressing the anchored ILT2 D3 domain protein (SEQ ID NO: 48); stacked histograms, axis without numbers, no control histogram
T21 construct: on CHO cells; the entry includes leader remnant, V5 tag and CD24 GPI anchor signal
T21 sequence (chain, as listed by the source limits assumed): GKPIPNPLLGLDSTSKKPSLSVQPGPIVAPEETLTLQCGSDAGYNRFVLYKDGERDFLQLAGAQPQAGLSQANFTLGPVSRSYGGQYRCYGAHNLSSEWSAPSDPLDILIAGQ

[19] = molecular target: T22, anchored ILT2 D3-D4 domain protein (human, UniProt Q8NHL6 223-650); assay: flow cytometry, CHO cells with anchored ILT2 domain proteins
T22 construct: on CHO cells; the entry includes leader remnant, V5 tag, and the ILT2 transmembrane and cytoplasmic parts

[20] = molecular target: T23, anchored ILT2 D2-D3-D4 domain protein (human, UniProt Q8NHL6 122-650); assay: as above
T23 construct: on CHO cells; the entry includes leader remnant, V5 tag, and the ILT2 transmembrane and cytoplasmic parts

ILT2 mutant 1 = molecular target: T24, ILT2 mutant 1 (human, UniProt Q8NHL6 24-650); assay: flow cytometry titration on HEK293T cells transfected with ILT2 mutant 1
T24 construct: transfected in HEK293T cells; also called M1

ILT2 mutant 2 = molecular target: T25, ILT2 mutant 2 (human, UniProt Q8NHL6 24-650); assay: flow cytometry titration on HEK293T cells transfected with ILT2 mutant 2
T25 construct: transfected in HEK293T cells; also called M2

[21] = molecular target: T9, human ILT2 (LILRB1) expressed at the …; assay: flow cytometry titration on HEK293T cells transfected with wild-type ILT2; remark: listed apart in the source
[22] = molecular target: T26, anchored ILT2 D4 domain protein (human, UniProt Q8NHL6 322-650); assay: flow cytometry on CHO cells expressing the anchored ILT2 D4 domain protein (SEQ ID NO: 49); stacked histograms, axis without numbers
T26 construct: on CHO cells; the entry includes leader remnant, V5 tag, and the ILT2 transmembrane and cytoplasmic parts

[23] = molecular target: T27, biotinylated BirA-tagged ILT2 protein tetramerised on APC-conjugated streptavidin (human, UniProt Q8NHL6 24-458, limits assumed, 1 biotin molecule per ILT2 protein (BirA tag)); assay: flow cytometry blocking assay: ILT2-streptavidin-APC complexes pre-incubated with antibody, then added to K562 cells expressing HLA-G; blocked ligand HLA-G
T27 construct: ratio 1 streptavidin per 4 ILT2 protein; streptavidin-APC not written as a chain; also called ILT2-SA tetramers; recombinant biotinylated ILT2
T27 sequence (Q8NHL6 24-458 limits assumed): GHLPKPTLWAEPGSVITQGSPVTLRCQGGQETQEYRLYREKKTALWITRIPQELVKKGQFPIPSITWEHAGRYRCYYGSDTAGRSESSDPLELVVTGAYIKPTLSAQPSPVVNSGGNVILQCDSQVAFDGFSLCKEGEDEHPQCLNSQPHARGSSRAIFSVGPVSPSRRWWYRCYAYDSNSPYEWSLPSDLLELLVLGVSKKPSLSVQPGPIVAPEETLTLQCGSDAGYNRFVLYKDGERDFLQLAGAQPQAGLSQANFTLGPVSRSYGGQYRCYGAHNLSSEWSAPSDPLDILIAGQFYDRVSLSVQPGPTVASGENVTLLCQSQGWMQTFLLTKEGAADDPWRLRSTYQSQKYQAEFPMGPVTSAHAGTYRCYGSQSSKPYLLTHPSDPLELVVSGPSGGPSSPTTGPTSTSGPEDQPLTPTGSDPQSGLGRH

[24] = molecular target: T27, biotinylated BirA-tagged ILT2 protein …; assay: flow cytometry blocking assay: ILT2-streptavidin-APC complexes pre-incubated with antibody, then added to WIL2-NS cells expressing HLA-A2; blocked ligand HLA-A2

T1 sequence (Q8NHL6 24-650): as the sequence (Q8NHL6 24-650) above
T2 sequence (Q8N149 other isoform, or with tags, fused parts or gaps): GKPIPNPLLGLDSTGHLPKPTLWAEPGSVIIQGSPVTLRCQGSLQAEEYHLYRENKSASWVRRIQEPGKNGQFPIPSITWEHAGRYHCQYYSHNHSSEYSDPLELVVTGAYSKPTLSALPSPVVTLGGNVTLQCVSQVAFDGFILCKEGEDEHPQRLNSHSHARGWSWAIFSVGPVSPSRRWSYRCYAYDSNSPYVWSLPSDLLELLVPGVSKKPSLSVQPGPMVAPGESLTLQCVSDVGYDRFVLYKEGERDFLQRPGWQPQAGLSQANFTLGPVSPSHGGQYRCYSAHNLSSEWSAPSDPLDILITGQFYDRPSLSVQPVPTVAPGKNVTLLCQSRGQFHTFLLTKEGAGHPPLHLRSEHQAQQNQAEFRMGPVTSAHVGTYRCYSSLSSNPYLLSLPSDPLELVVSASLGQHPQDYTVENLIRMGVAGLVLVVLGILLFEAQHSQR

Binder	CD137 expression on ILT2-positive primary NK cells [1]	CD137 expression on NK cells of urothelial cancer patients with HLA-A2-expressing B cells [1]	binding result [2]	binding result [3]	binding result [4]	binding result [5]	binding result [6]	binding result [7]	binding result [8]	EC50 [9]	EC50 [10]	binding result [11]	binding result [13]	Kd [15]	koff [15]	binding result [18]	other results
18E1 (antibody, human IgG1, V domains shown) VH: QVQLQQSGAELVKPGASVRLSCKASGYTFTAHTIHWVKQRSGQGLEWIGWLYPGSGSIKYNEKFKDKATLTADKSSSTVYMELSRLTSEDSAVYFCARHTNWDFDYWGQGTTLTVSS VL: NIVLTQSPASLAVSLGQRATISCKASQSVDYGGASYMNWYQQKPGQPPKLLIYAASNLESGIPARFSGSGSGTDLTLNIHPVEEEDAAMYYCQQSNEEPWTFGGGTKLEIK	2 fold	> 2 fold	no binding	no binding	no binding	no binding	no binding	no binding	no binding	0.12 µg/mL	0.11 µg/mL	no binding	no binding	0.2 nM	0.00011 s⁻¹	no binding	binding result [12]: no binding; binding result [14]: no binding; EC50 (read off the curve) [16]: ~0.3 µg/mL; binding result (ILT2 mutant 4-1): no binding (tested: about 20 µg/ml); binding result (ILT2 mutant 4-2): no binding (tested: about 20 µg/ml); binding result (Mutant D4-4): binds; binding result (ILT2 mutant 4-5): binds; binding result (Mutant D4-1B): binds; binding result [17]: no binding
12D12 (antibody, human IgG1, V domains shown) VH: QVQLQQPGAELVKPGASVRMSCKASGYTFTSYWVHWVKQRPGQGLEWIGVIDPSDSYTSYNQNFKGKATLTVDTSSKTAYIHLSSLTSEDSAVYFCARGERYDGDYFAMDYWGQGTSVTVSS VL: DIVMTQSPASLSVSVGETVTITCRASENIYSNLAWYQQKQGKSPQLLVYAATNLADGVPSRFSGSRSGTQYSLKINSLQSEDFGTYYCQHFWNTPRTFGGGTKLEIK	2 fold	> 2 fold	no binding	no binding	no binding	no binding	no binding	no binding	no binding	0.36 µg/mL	0.09 µg/mL	no binding	no binding	1 nM	0.00042 s⁻¹	no binding	binding result [19]: no binding; binding result [20]: no binding; kon [15]: 430000 M⁻¹ s⁻¹; EC50 (read off the curve) (ILT2 mutant 1): ~0.4 µg/mL; binding result (ILT2 mutant 2): no binding (tested: about 20 µg/ml); EC50 (read off the curve) [21]: ~0.5 µg/mL; binding result [22]: no binding; IC50 (read off the curve) [23]: ~0.2 µg/mL; IC50 (read off the curve) [24]: ~0.1 µg/mL
